This is an account of results in patent publication US20200408769A1.

Assay in all cases: cell-based or functional assay
Assay [1] has as its target TM4SF1 (Transmembrane 4 L six family member 1) (human) (UniProt P30408).
The target in assay [2] is EpCAM (Epithelial Cell Adhesion Molecule) (human) (UniProt P16422).
The target of assay [3] is SDC1 (Syndecan 1) (human) (UniProt P18827).
Assay [4] has as its target TNFRSF12A (TNF receptor superfamily member 12A) (human) (UniProt Q9NP84).
Sequence of UniProt Q9NP84 (Q9NP84 28-129 limits assumed): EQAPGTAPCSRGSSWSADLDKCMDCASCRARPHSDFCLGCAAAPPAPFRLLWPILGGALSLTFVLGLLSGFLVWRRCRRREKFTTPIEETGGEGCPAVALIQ

Sequence of UniProt P16422 (P16422 24-314): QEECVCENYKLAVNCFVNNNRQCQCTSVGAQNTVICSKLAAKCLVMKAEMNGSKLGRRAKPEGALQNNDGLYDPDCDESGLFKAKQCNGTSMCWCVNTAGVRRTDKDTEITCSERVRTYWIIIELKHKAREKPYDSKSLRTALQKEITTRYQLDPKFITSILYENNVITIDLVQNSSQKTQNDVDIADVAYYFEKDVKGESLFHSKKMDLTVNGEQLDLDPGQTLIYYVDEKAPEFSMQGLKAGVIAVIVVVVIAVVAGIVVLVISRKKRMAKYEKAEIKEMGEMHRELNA
Sequence of UniProt P30408 (P30408 whole entry): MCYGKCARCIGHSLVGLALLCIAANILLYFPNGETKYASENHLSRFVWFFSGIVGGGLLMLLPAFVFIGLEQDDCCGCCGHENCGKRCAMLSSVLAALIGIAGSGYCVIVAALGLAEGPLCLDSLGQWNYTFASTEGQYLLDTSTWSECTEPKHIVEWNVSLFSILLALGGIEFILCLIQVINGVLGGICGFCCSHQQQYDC
Sequence of UniProt P18827 (P18827 23-310 L136Q limits assumed): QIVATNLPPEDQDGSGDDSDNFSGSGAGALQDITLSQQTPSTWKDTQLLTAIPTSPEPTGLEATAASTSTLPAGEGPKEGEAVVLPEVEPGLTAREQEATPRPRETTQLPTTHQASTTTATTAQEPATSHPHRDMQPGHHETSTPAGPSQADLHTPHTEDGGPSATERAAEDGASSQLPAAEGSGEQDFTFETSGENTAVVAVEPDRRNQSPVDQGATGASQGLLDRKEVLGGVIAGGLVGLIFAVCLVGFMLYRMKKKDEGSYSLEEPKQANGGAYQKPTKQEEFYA

“anti-TM4SF1 antibody (Human TM4SF1 Phycoerythrin MAb, R&D systems)”: in assay [1], the PANC1 cell collection ratio [%] was 66% and the PC3 cell collection ratio [%] was found to be 76%.

In the case of “anti-EpCAM antibody (PE-anti-human EpCAM Antibody, Miltenyi Biotec)”, in assay [2], the PANC1 cell collection ratio [%] stood at 49% and the PC3 cell collection ratio [%] was 42%. “anti-SDC1 antibody (PE-anti-human SDC1 Antibody, Biolegend)”: the PC3 cell collection ratio [%] in assay [3] came out at 64%. Consider “anti-TNFRSF12A antibody (PE anti-human CD266 (Fn14, TWEAK R) Antibody, Biolegend)”, for which, in assay [4], the PANC1 cell collection ratio [%] is 74.1% and the PC3 cell collection ratio [%] turned out to be 48%.
